From the Immune Epitope Database (IEDB)

How the values were obtained:
HLA-B*53:01 = assay: IEDB peptide-MHC binding, purified MHC/competitive/radioactivity; filed as Kd, often an IC50 or EC50 that approximates it; ≥ and ≤ were set here for values at or beyond the usual limits of such assays
HLA-B*35:01 = assay: as above
HLA-B*51:01 = assay: as above
HLA-B*07:02 = assay: as above
HLA-B*54:01 = assay: as above
HLA-A*11:01 = assay: IEDB peptide-MHC binding, purified MHC/competitive/fluorescence; ≥ and ≤ were set here for values at or beyond the usual limits of such assays
HLA-B*57:01 = assay: IEDB peptide-MHC binding, purified MHC/direct/fluorescence; filed as Kd, often an IC50 or EC50 that approximates it; ≥ and ≤ were set here for values at or beyond the usual limits of such assays
HLA-B*15:17 = assay: as above
HLA-A*03:01 = assay: IEDB peptide-MHC binding, purified MHC/competitive/fluorescence; filed as Kd, often an IC50 or EC50 that approximates it; ≥ and ≤ were set here for values at or beyond the usual limits of such assays
HLA-A*24:02 = assay: IEDB peptide-MHC binding, purified MHC/competitive/fluorescence; ≥ and ≤ were set here for values at or beyond the usual limits of such assays; settings: source organism: Sudan ebolavirus
HLA-A*02:01 = assay: as above
HLA-B*58:01 = assay: IEDB peptide-MHC binding, purified MHC/direct/fluorescence; filed as Kd, often an IC50 or EC50 that approximates it; ≥ and ≤ were set here for values at or beyond the usual limits of such assays
[1] = source organism: SARS coronavirus Tor2
[2] = source organism: Vaccinia virus WR
[3] = source organism: West Nile virus
[4] = source organism: Mammarenavirus whitewaterense
[5] = source organism: Sudan ebolavirus
[6] = source organism: Camelpox virus M-96
[7] = source organism: Zaire ebolavirus
[8] = source organism: Listeria monocytogenes serotype 4b str. H7858
[9] = source organism: Cryptosporidium parvum

IPTNFSISI showed a Kd (HLA-B*53:01; [1]) of 0.0107 µM, a Kd (HLA-B*35:01; [1]) of 0.0312 µM and a Kd (HLA-B*51:01; [1]) of 0.0571 µM. The Kd (HLA-B*07:02; [1]) was 0.0641 µM and the Kd (HLA-B*54:01; [1]) was 0.0499 µM.

VLTGGTGVG was tested, and the IC50 (HLA-A*11:01; source organism: Variola virus) was no less than 80.6 µM.

KPFNNILNLI gave a Kd (HLA-B*53:01; [2]) of no less than 69.9 µM, a Kd (HLA-B*35:01; [2]) of no less than 69.9 µM and a Kd (HLA-B*51:01; [2]) of no less than 10 µM. It also gave a Kd (HLA-B*07:02; [2]) of 1.14 µM and a Kd (HLA-B*54:01; [2]) of no less than 69.9 µM.

SPLPSLEYGA gave a Kd (HLA-B*53:01; [2]) of 12.4 µM, a Kd (HLA-B*35:01; [2]) of 6 µM and a Kd (HLA-B*51:01; [2]) of no less than 69.6 µM. It also gave a Kd (HLA-B*07:02; [2]) of 1.64 µM and a Kd (HLA-B*54:01; [2]) of 0.000204 µM.

Sequence RVLEMVEDW has a Kd (HLA-B*57:01; [3]) of 0.0879 µM and a Kd (HLA-B*15:17; [3]) of 0.0432 µM.

In the case of YMFESKRMK, the Kd (HLA-A*03:01; source organism: Influenza A virus (A/swine/Finistere/127/99(H3N2))) is reported as 0.0194 µM.

In the case of NPTNISKCF, the Kd (HLA-B*53:01; [4]) is reported as 0.0777 µM, the Kd (HLA-B*35:01; [4]) is reported as 0.199 µM and the Kd (HLA-B*51:01; [4]) is reported as 5.74 µM. It also gave a Kd (HLA-B*07:02; [4]) of 8.66 µM and a Kd (HLA-B*54:01; [4]) of 3.47 µM.

With LPMIIGEPII the Kd (HLA-B*53:01; [2]) was 0.0333 µM, the Kd (HLA-B*35:01; [2]) was 0.75 µM and the Kd (HLA-B*51:01; [2]) was 0.456 µM. The Kd (HLA-B*07:02; [2]) was 0.00912 µM and the Kd (HLA-B*54:01; [2]) was 0.0311 µM.

Work on EPSGNNYHIL yielded a Kd (HLA-B*53:01; [2]) of 2.96 µM, a Kd (HLA-B*35:01; [2]) of 8.08 µM and a Kd (HLA-B*51:01; [2]) of no less than 69.6 µM. The Kd (HLA-B*07:02; [2]) was 1.67 µM and the Kd (HLA-B*54:01; [2]) was 15.5 µM.

For CLRIPMTDK, the Kd (HLA-A*03:01; source organism: Bacillus thuringiensis str. Al Hakam) was 0.0529 µM.

Work on PPLISILMIF yielded a Kd (HLA-B*53:01; [2]) of 0.497 µM, a Kd (HLA-B*35:01; [2]) of 0.761 µM and a Kd (HLA-B*51:01; [2]) of 2.02 µM. For the same sequence, the Kd (HLA-B*07:02; [2]) was 0.27 µM and the Kd (HLA-B*54:01; [2]) was 3.12 µM.

In the case of APAICHEGKA, the Kd (HLA-B*53:01; [1]) is reported as 17.3 µM, the Kd (HLA-B*35:01; [1]) is reported as no less than 53.5 µM and the Kd (HLA-B*51:01; [1]) is reported as no less than 43 µM. The Kd (HLA-B*07:02; [1]) was 2.01 µM and the Kd (HLA-B*54:01; [1]) was 1.47 µM.

In the case of EWAFWENKK, the IC50 (HLA-A*11:01; [5]) is reported as 10.8 µM, the IC50 (HLA-A*24:02) is reported as 15.3 µM and the IC50 (HLA-A*02:01; [5]) is reported as no less than 183 µM.

In the case of KSVTKSSSW, the Kd (HLA-B*57:01; [6]) is reported as 0.108 µM, the Kd (HLA-B*58:01; [6]) is reported as 0.0162 µM and the Kd (HLA-B*15:17; [6]) is reported as no more than 0.001 µM.

With DPDHYKDYA the Kd (HLA-B*53:01; [2]) was no less than 75.5 µM, the Kd (HLA-B*35:01; [2]) was no less than 77.4 µM and the Kd (HLA-B*51:01; [2]) was no less than 22.5 µM. It also gave a Kd (HLA-B*07:02; [2]) of 14.8 µM and a Kd (HLA-B*54:01; [2]) of 7.01 µM.

With TPVYKLDIS the IC50 (HLA-A*11:01; [7]) was 65.8 µM and the IC50 (HLA-A*02:01; [7]) was no less than 170 µM.

Work on VVAFLILPQ yielded an IC50 (HLA-A*11:01; [7]) of no less than 1240 µM and an IC50 (HLA-A*02:01; [7]) of no less than 1420 µM.

IPYSRVNHA showed a Kd (HLA-B*53:01; [2]) of 0.177 µM, a Kd (HLA-B*35:01; [2]) of 0.0572 µM and a Kd (HLA-B*51:01; [2]) of 0.0232 µM. It also gave a Kd (HLA-B*07:02; [2]) of 0.00663 µM and a Kd (HLA-B*54:01; [2]) of 0.000133 µM.

KSAYPFDEL gave a Kd (HLA-B*57:01; [8]) of no less than 20 µM, a Kd (HLA-B*58:01; [8]) of 0.046 µM and a Kd (HLA-B*15:17; source organism: Listeria monocytogenes) of 0.134 µM.

HGEYAPFAR was tested, and the IC50 (HLA-A*11:01; [7]) was 61.7 µM.

KACPPGFVF was tested, and the Kd (HLA-B*57:01; [9]) was 2.48 µM, the Kd (HLA-B*58:01; [9]) was 0.0177 µM and the Kd (HLA-B*15:17; [9]) was 0.143 µM.
